Reference: patent US5705398A, “Methods for identifying inhibitors of LPS-mediated LBP binding” (The Scripps Research Institute, priority 1994, dated 1998)

B1: LBP: LPS binding protein isolated from acute phase rabbit serum (protein, UniProt P17454 27-482, looked up)
Lipopolysaccharide-binding …: TNPGLITRITDKGLEYAAREGLLALQRKLLEVTLPDSDGDFRIKHFGRAQYKFYSLKIPRFELLRGTLRPLPGQGLSLDISDAYIHVRGSWKVRKAFLRLKNSFDLYVKGLTISVHLVLGSESSGRPTVTTSSCSSDIQNVELDIEGDLEELLNLLQSQIDARLREVLESKICRQIEEAVTAHLQPYLQTLPVTTQIDSFAGIDYSLMEAPRATAGMLDVMFKGEIFPLDHRSPVDFLAPAMNLPEAHSRMVYFSISDYVFNTASLAYHKSGYWNFSITDAMVPADLNIRRTTKSFRPFVPLLANLYPNMNLELQGTVNSEQLVNLSTENLLEEPEMDIEALVVLPSSAREPVFRLGVATNVSATLTLNTRKITGFLKPGRLQVELKESKVGGFNVELLEALLNYYILNNLYPKVNEKLAHRFPLPLLRHIQLYDLLLQTHENFLLVGANIQYRRV

Key:
[1] = biological target: T1, recombinant human soluble CD14 (Homo sapiens, UniProt P08571); assay: F-LPS/CD14 fluorescence assay comparing LBP with other LPS-binding proteins; settings: 20 ng/ml F-LPS; for effect on FI of F-LPS with CD14 when replacing LBP: protein 300 ng/ml, CD14 0 to 10 ug/ml
T1 construct: made in house; host or cells: CHO cells (clone 523, vector pEE14), secreted into culture medium
T1 sequence (P08571 20-375): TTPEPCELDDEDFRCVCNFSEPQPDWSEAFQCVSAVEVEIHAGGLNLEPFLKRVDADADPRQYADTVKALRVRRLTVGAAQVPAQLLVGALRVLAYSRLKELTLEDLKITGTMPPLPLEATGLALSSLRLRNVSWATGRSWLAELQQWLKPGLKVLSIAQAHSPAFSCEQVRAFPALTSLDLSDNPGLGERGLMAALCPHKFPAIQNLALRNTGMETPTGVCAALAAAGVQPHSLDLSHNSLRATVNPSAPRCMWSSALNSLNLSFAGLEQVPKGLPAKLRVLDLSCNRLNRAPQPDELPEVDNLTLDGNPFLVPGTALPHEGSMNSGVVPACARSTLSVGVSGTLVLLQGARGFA
Experimental: For the assay, LBP or the other known LPS-binding proteins were added to the admixture at a concentration of 300 nanograms/milliliter (ng/ml) and were separately admixed with varying amounts the recombinant human soluble CD14 ranging in concentration from 0 to 10 micrograms/milliliter (ug/ml).
To this admixture, 20 ng/ml of F-LPS prepared in Example 1 were admixed to form a binding admixture. Fluorescence measurements were then performed as described above to determine the effect of LBP and CD14 on the FI of F-LPS.

CD14 [2] = biological target: T2, CD14 (Homo sapiens, UniProt P08571); assay: Competition of non-fluoresceinated LPS with F-LPS in LBP/CD14 binding assay; settings: similar to FIG. 3 with Re595 LPS
T2 construct: made in house; host or cells: CHO cells (clone 523, vector pEE14), secreted into culture medium
T2 sequence (P08571 20-375): T1 sequence (P08571 20-375)

[3] = biological target: T3, LPS-Binding Protein (LBP) (Oryctolagus cuniculus, UniProt P17454); assay: Fluorescence spectroscopy assay of F-LPS binding to LBP; design: species or system rabbit; settings: for fluorescence intensity, +LBP (F-LPS+peptide+LBP): 10 ng/ml F-LPS + 1 mM polypeptide + 1 ug/ml rabbit LBP, no-peptide control 2700 (Experiment A, peptides 1-4), 2300 (Experiment B, peptides 5-8); for fluorescence intensity, +peptide (F-LPS+peptide): 10 ng/ml F-LPS + 1 mM polypeptide, before LBP; for fluorescence intensity, +F-LPS (F-LPS alone): 10 ng/ml F-LPS in PBS/2 mM EDTA pH 7.4, before peptide addition (baseline of the run); for inhibition of LPS binding to LBP (in words): 1 mM polypeptide, from Table 3
T3 construct: isolated from acute phase rabbit serum; from tissue; host or cells: acute phase rabbit serum
T3 sequence (P17454 27-482): B1 Lipopolysaccharide-binding …
Experimental: The fluorescence spectroscopy assay method detects the intensity of fluorescence of fluoresceinated LPS in the presence of LBP.
The assay reaction admixture was prepared by admixing 10 ng/ml F-LPS and 1 ug/ml rabbit LBP into a solution of phosphate buffered saline (PBS) containing 2 mM EDTA, pH 7.4. The FI was then measured with an SLM 8000 photon counting spectrophotometer (SLM, Urbana, Ill.). A continuous FI output was measured over time while first the F-LPS was added to the PBS/EDTA solution, and then the LBP was added.
To study the effect of an LBP-derived polypeptide upon the effect of LBP on the FI of F-LPS, a polypeptide was added to the assay admixture at a concentration of 1 mM polypeptide prior to the addition of LBP, which was typically added about 30 to 150 seconds after the polypeptide was added to the admixture.

Human CD14 = assay: Fluorescence spectroscopy assay of F-LPS binding to soluble CD14 in presence of LBP, with peptides; settings: for fluorescence intensity, +peptide (F-LPS+peptide): F-LPS + polypeptide, before CD14 and LBP; for fluorescence intensity, +F-LPS (F-LPS alone): before peptide addition (baseline of the run)
Experimental: (§1) The fluorescence spectroscopy assay method also detects the intensity of fluorescence of fluoresceinated LPS in the presence of LBP and soluble CD14.
(§2) The assay to measure binding interactions between CD14 and LPS or LPS-LBP complex was conducted essentially as described in Example 1 with the following exceptions. First, the amount of rabbit LBP in the reaction admixture was 40 ng/ml. Second, soluble CD14 (sCD14) prepared as described in Example 2A was added to the reaction admixture at a concentration of 10 ug/ml prior to addition of the LBP to the reaction admixture. Peptides 6, 7 and 8, whose sequences are shown in Table 2, were each separately added to assay reaction admixtures, and the resulting FI was measured.

CD14 [4] = biological target: T2, CD14; assay: as above; settings: for fluorescence intensity, +CD14: 10 ug/ml soluble CD14 added before LBP, no-peptide control 1500; for fluorescence intensity, +LBP: F-LPS + polypeptide + 10 ug/ml sCD14 + 40 ng/ml rabbit LBP, no-peptide control 6300; for inhibition of fluorescence of F-LPS / LPS binding to LBP in presence of LBP and CD14 (in words): from Table 4
Experimental: as §1, §2

Molecule	fluorescence intensity, +LBP (F-LPS+peptide+LBP) [3]	fluorescence intensity, +peptide (F-LPS+peptide) [3]	fluorescence intensity, +F-LPS (F-LPS alone) [3]	inhibition of LPS binding to LBP (in words) [3]	further results
apotransferrin					effect on FI of F-LPS with CD14 when replacing LBP [1]: no effect was detected
CCCCCCCCCCC[C@@H](O)CC(=O)N[C@H]1[C@H](OC[C@H]2O[C@H](OP(=O)(O)O)[C@H](NC(=O)C[C@H](O)CCCCCCCCCCC)[C@@H](OC(=O)C[C@H](O)CCCCCCCCCCC)[C@@H]2O)O[C@H](CO)[C@@H](OP(=O)(O)O)[C@@H]1OC(=O)C[C@H](O)CCCCCCCCCCC [lipid IVa]					inhibition of FI increase by non-fluoresceinated LPS preparations (in words) (CD14 [2]): dose dependent inhibition
lysozyme					effect on FI of F-LPS with CD14 when replacing LBP [1]: no effect was detected
CSSDIQNVELDIEGDLEELLNLLQSQIDARLREVLESKI [Peptide 3]	2100 FIU	1300 FIU	800 FIU	weakly inhibit LPS binding to LBP	
lipid A [synthetic lipid A]					inhibition of FI increase by non-fluoresceinated LPS preparations (in words) (CD14 [2]): dose dependent inhibition
ATLTLNTRKIT [Peptide 7]	1300 FIU	1600 FIU	800 FIU	strongly inhibit LPS binding to LBP	fluorescence intensity, +peptide (F-LPS+peptide) (Human CD14): 2400 FIU; fluorescence intensity, +F-LPS (F-LPS alone) (Human CD14): 1200 FIU; fluorescence intensity, +CD14 (CD14 [4]): 2000 FIU; fluorescence intensity, +LBP (CD14 [4]): 1500 FIU; inhibition of fluorescence of F-LPS / LPS binding to LBP in presence of LBP and CD14 (in words) (CD14 [4]): strongly inhibit LPS binding to LBP
TNPGLITRITDKGL [Peptide 1]	2400 FIU	900 FIU	900 FIU		
GIDYSLMEAPRATA [Peptide 5]	2000 FIU	750 FIU	750 FIU		
KVRKAFLRLKNSFDL [Peptide 2]	800 FIU	800 FIU	900 FIU	strongly inhibit LPS binding to LBP	
LQPYLQTLPVTTQIDS [Peptide 4]	2300 FIU	900 FIU	800 FIU		
PSSAREPVFRLGVAT [Peptide 6]	1500 FIU	800 FIU	750 FIU	strongly inhibit LPS binding to LBP	fluorescence intensity, +peptide (F-LPS+peptide) (Human CD14): 1300 FIU; fluorescence intensity, +F-LPS (F-LPS alone) (Human CD14): 1200 FIU; fluorescence intensity, +CD14 (CD14 [4]): 1300 FIU; fluorescence intensity, +LBP (CD14 [4]): 3500 FIU; inhibition of fluorescence of F-LPS / LPS binding to LBP in presence of LBP and CD14 (in words) (CD14 [4]): strongly inhibit LPS binding to LBP
QTHENFLLVGANIQYRRV [Peptide 8]	2300 FIU	800 FIU	700 FIU		fluorescence intensity, +peptide (F-LPS+peptide) (Human CD14): 1400 FIU; fluorescence intensity, +F-LPS (F-LPS alone) (Human CD14): 1400 FIU; fluorescence intensity, +CD14 (CD14 [4]): 1500 FIU; fluorescence intensity, +LBP (CD14 [4]): 5400 FIU
B1					maximum FI ([1]; LBP 300 ng/ml, plateau at CD14 about 10 ug/ml): greater than 90,000 fluorescence units
